From paper PMC12858348, “Structural basis underlying the autoinhibition of the formin FHOD1 and its phosphorylation-dependent activation” (The Journal of Biological Chemistry, 2025)

T1: His-tagged FHOD1-N3 (1–360) (human, UniProt Q9Y613 1-360)
T1 construct: human FHOD1, residues 1-360 (GBD and FH3 domains), from human FHOD1 cDNA in pProEX-HTb; also called FHOD1-N-WT; N-terminal region
T1 sequence (looked up): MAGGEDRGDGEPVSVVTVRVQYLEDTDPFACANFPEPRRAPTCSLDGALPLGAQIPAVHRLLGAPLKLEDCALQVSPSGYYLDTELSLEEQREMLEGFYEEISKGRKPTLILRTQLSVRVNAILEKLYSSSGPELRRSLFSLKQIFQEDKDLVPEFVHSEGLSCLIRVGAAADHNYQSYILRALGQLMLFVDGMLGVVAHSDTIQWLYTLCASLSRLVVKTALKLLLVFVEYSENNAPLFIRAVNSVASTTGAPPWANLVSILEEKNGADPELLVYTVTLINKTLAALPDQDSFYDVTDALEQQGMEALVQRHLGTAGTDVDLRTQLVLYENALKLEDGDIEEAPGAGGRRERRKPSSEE


Target: T1, His-tagged FHOD1-N3 (1–360)
Experiment: pull-down; 20 μg GST fusion protein (GST-DAD 1.25 μM) and 20 μg His-tagged protein (His-FHOD1-N3 1.0 μM) in 500 μl PBS pH 7.4 with 0.1% Triton X-100; glutathione-Sepharose 4B, 1 h at 4 °C; three washes; eluted with 10 mM glutathione; SDS-PAGE, CBB staining, densitometry
Conditions: both partners purified

| binding result | Binder |
| --- | --- |
| binds | GST-fused FHOD1–DAD (1081–1145) (domain or fragment, human, UniProt Q9Y613 1081-1145, looked up, human FHOD1, residues 1081-1145 (diaphanous autoregulatory domain), in pGEX-6P; also called DAD-WT; GST-DAD; source: E. coli BL21, purified (glutathione-Sepharose-4B)) MPTVGPSTASPEEPPGSSLPSDTSDEIMDLLVQSVTKSSPRALAARERKRSRGNRKSLRRTLKSG |
| binds | GST-fused FHOD1–DAD (1081–1145) M1108A (domain or fragment, human, UniProt Q9Y613 1081-1145, looked up, human FHOD1, residues 1081-1145 (DAD), M1108A in the core motif; also called DAD-M1108A; source: E. coli BL21, purified (glutathione-Sepharose-4B)) MPTVGPSTASPEEPPGSSLPSDTSDEIADLLVQSVTKSSPRALAARERKRSRGNRKSLRRTLKSG |
